Each block holds one binder with its values, some of them ahead of it.
Legend:
[1] = target: phosphatidylinositol 3,4,5-trisphosphate Rac exchange factor 2 (PREX2) (UniProt Q70Z35 1-1606, limits assumed); assay: cell-based or functional assay
[2] = target: endogenous PREX2 of mouse liver (mouse, UniProt Q3LAC4 1-1598, limits assumed); assay: reciprocal co-IP, mouse liver lysates (FIG. 1B)
Source text: FIG. 1B depicts that mouse liver lysates were used for reciprocal co-IP assay followed by IB analysis.
Please refer to FIG. 1A to FIG. 1G, which illustrates that GNMT interacts with PREX2 and negatively regulates PREX2-mediated AKT signaling. As the data in FIG. 1A illustrated, GNMT interacted with endogenous PREX2. […] To map the binding domain, different Myc-tagged PREX2 truncated mutants were co-expressed with Flag-tagged GNMT in HEK293T cells.

Sequence of endogenous PREX2 of mouse liver (Q3LAC4 whole entry): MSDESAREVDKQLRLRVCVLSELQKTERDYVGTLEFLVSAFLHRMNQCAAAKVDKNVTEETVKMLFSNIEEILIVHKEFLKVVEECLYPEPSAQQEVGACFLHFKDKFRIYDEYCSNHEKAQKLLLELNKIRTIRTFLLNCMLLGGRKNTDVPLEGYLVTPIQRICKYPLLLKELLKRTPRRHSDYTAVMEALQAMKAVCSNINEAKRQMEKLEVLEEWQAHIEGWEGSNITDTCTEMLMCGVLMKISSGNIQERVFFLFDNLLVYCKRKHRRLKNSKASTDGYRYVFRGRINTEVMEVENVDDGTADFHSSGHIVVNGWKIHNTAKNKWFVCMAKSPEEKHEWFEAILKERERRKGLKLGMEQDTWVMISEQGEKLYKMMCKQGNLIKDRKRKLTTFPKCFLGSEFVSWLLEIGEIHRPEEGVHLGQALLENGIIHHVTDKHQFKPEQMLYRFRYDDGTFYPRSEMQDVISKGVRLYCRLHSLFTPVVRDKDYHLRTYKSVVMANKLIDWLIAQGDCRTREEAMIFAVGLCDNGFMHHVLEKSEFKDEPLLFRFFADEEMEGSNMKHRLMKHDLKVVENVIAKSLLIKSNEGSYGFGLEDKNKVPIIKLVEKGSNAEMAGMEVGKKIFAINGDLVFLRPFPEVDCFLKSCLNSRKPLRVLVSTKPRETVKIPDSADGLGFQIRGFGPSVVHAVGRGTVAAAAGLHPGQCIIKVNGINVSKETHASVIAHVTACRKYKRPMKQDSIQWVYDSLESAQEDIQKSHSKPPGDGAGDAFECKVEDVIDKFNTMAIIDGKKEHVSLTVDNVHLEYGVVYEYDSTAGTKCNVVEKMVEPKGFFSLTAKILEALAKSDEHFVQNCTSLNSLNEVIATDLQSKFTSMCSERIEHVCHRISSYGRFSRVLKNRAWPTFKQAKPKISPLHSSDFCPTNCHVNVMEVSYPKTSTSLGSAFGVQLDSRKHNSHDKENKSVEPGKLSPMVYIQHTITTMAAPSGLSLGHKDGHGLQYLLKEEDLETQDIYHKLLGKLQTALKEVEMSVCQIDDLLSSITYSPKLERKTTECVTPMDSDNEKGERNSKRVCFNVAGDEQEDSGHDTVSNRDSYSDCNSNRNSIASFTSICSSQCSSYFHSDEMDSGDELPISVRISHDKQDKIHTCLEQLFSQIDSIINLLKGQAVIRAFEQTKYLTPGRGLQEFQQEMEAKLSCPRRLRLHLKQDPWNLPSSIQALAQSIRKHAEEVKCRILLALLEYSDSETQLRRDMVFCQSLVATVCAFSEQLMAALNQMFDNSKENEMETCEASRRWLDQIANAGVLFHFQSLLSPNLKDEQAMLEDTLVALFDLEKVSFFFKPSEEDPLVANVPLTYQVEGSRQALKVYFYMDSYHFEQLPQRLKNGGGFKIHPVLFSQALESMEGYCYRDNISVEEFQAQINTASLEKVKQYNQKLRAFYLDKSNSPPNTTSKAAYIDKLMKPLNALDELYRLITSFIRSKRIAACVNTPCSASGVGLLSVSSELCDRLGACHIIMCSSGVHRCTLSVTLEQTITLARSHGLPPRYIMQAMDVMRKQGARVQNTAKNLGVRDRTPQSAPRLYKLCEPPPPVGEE
Sequence of phosphatidylinositol 3,4,5-trisphosphate Rac exchange factor 2 (PREX2) (Q70Z35 whole entry): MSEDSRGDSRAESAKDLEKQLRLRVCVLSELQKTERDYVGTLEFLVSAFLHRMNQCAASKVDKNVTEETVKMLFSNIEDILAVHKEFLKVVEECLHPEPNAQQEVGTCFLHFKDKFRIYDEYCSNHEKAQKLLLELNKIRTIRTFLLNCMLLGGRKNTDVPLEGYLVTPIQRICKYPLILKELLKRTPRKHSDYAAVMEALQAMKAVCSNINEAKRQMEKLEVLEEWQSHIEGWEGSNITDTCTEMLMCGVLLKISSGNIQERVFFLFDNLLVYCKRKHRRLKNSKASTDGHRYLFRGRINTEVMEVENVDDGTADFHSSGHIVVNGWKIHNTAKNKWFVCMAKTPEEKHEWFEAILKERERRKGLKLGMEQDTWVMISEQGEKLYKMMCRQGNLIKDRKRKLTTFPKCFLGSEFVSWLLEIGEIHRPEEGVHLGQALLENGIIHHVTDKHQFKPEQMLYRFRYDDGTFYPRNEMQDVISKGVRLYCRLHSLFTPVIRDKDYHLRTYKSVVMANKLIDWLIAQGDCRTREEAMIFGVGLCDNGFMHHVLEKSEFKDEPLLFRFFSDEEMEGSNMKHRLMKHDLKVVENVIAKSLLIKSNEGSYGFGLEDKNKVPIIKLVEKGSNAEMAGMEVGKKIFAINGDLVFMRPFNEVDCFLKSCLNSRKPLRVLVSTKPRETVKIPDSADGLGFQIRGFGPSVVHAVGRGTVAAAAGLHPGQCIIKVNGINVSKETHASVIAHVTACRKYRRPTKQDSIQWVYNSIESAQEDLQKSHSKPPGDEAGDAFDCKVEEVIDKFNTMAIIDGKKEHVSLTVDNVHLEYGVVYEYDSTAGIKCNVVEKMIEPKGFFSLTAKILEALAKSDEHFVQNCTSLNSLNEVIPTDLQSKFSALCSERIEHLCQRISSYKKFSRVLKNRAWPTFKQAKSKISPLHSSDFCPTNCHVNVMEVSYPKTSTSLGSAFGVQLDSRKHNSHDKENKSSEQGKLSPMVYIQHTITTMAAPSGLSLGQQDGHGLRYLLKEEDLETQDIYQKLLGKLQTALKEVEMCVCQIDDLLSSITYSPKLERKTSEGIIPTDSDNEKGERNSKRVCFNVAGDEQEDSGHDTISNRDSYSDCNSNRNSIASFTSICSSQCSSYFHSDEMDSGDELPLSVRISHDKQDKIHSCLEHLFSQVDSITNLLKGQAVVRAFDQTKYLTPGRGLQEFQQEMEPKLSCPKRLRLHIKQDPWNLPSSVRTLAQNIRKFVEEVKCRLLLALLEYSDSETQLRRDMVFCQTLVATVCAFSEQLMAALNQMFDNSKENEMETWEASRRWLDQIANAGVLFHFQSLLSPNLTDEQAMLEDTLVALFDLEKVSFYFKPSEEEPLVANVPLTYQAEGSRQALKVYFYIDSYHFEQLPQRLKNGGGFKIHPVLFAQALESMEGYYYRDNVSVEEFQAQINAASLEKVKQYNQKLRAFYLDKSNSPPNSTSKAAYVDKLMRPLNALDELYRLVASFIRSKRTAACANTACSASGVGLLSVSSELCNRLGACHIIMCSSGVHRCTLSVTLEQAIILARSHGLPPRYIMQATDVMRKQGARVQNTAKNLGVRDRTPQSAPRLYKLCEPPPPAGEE

- PREX2 half-life (pulse-chase, 35S-Methionine/Cysteine, Huh7 cells) [1]: 9.4 h
B1: glycine-N-methyltransferase (GNMT) (enzyme)
chain: VDSVYRTRSLGVAAEGLPDQYADGEAARVWQLYIGDTRSRTAEYKAWLLGLLRQHGCQRVLDVACGTGVDSIMLVEEGFSVTSVDASDKMLKYALKERWNRRHEPAFDKWVIEEANWMTLDKDVPQSAEGGFDAVICLGNSFAHLPDCKGDQSEHRLALKNIASMVRAGGLLVIDHRNYDHILSTGCAPPGKNIYYKSDLTKDVTTSVLIVNNKAHMVTLDYTVQVPGAGQDGSPGLSKFRLSYYPHCLASFTELLQAAFGGKCQHSVLGDFKPYKPGQTYIPCYFIHVLKRTD

- binding result [2]: binds
B2: endogenous GNMT of mouse liver (enzyme, UniProt Q9QXF8 2-293, looked up)
chain: VDSVYRTRSLGVAAEGLPDQYADGEAARVWQLYIGDTRSRTAEYKAWLLGLLRQHGCHRVLDVACGTGVDSIMLVEEGFSVMSVDASDKMLKYALKERWNRRKEPSFDNWVIEEANWLTLDKDVLSGDGFDAVICLGNSFAHLPDCKGDQSEHRLALKNIASMVRPGGLLVIDHRNYDYILSTGCAPPGKNIYYKSDLTKDITTSVLTVNNKAHMVTLDYTVQVPGTGRDGSPGFSKFRLSYYPHCLASFTELVRAAFGGRCQHSVLGDFKPYKPGQAYVPCYFIHVLKKTD

Source: patent publication US20200040401A1 (KAOHSIUNG MEDICAL UNIVERSITY, published 2020)
